For 51 sequences, PDZ domain bound results are on record in patent publication US20080119412A1, “Polypeptides for Modulating Binding of Trp Channel Proteins and Trp- Associated Proteins” (NoNO Inc., priority 2003, published 2008).

One test deals with T1, INADL d3 (Homo sapiens, UniProt Q8NI35).
T1 construct: made in house; host or cells: E. coli (DH5alpha, BL21 or JM109)
T1 sequence (Q8NI35 with tags, fused parts or gaps): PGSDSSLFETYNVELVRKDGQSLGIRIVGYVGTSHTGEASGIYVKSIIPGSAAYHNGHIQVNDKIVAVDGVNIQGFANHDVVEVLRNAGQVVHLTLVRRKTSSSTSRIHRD
Description: G assay, peptide binding to GST-PDZ fusion (Table 11). Conditions: Table 11, titrations or binding assays.

Another test addresses T2, ZO-1 d2 (Homo sapiens, UniProt Q07157, DEL264-264).
T2 construct: made in house; host or cells: E. coli (DH5alpha, BL21 or JM109)
T2 sequence (Q07157 with tags, fused parts or gaps DEL264-264): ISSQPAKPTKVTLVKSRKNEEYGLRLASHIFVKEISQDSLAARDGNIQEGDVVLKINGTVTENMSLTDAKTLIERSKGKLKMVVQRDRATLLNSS
The description is as above. Conditions: Table 11, titrations or binding assays.

No end group written: not given here. *: point of attachment. Biotin = O=C1N[C@H]2[C@H](CS[C@H]2CCCCC(=O)*)N1

Description for INADL d3: (§1) The binding of labeled PL peptide (e.g., as listed in TABLE 2 and TABLE 4) to this surface is then measured. In a preferred embodiment, the assay is carried out as follows:
(§2) (1) A PDZ-domain polypeptide is bound to a surface, e.g. a protein binding surface. In a preferred embodiment, a GST/PDZ fusion protein containing one or more PDZ domains is bound to a polystyrene 96-well plate. […] In one embodiment, the GST/PDZ fusion protein is bound via an anti-GST antibody that is coated onto the 96-well plate. Adequate binding to the plate can be achieved when:
(§3) (2) Biotinylated PL peptides are allowed to react with the surface by addition of 50 μl per well of 20 μM solution of the biotinylated peptide in PBS/BSA for 10 minutes at 4° C., followed by an additional 20 minute incubation at 25° C. The plate is washed 3 times with ice cold PBS.
(§4) (3) The binding of the biotinylated peptide to the GST/PDZ fusion protein surface can be detected using a variety of methods and detectors known to one of skill in the art. In one embodiment, 100 μl per well of 0.5 μg/ml streptavidin-horseradish peroxidase (HRP) conjugate dissolved in BSA/PBS is added and allowed to react for 20 minutes at 4° C. The plate is then washed 5 times with 50 mM Tris pH 8.0 containing 0.2% Tween 20, and developed by addition of 100 μl per well of HRP-substrate solution (TMB, Dako) for 20 minutes at room temperature (RT). The reaction of the HRP and its substrate is terminated by addition of 100 μl per well of 1 M sulfuric acid, and the optical density (O.D.) of each well of the plate is read at 450 um.
(§5) (4) Specific binding of a PL peptide and a PDZ domain polypeptide is determined by comparing the signal from the well(s) in which the PL peptide and PDZ domain polypeptide are combined, with the background signal(s). […] Typically a specific or selective reaction will be at least twice background signal, more typically more than 5 times background, and most typically 10 or more times the background signal. […] Correspondingly, a statistical test (e.g. a T-test) comparing repeated measurements of the signal with -repeated measurements of the background will result in a p-value <0.05, more typically a p-value <0.01, and most typically a p-value <0.001 or less. As noted, in an embodiment of the G assay, the signal from binding of a given PL peptide to immobilized (surface bound) GST polypeptide alone is one suitable negative control (sometimes referred to as B1). Because all measurement are done in multiples (i.e. at least duplicate) the arithmetic mean (or, equivalently, average.) of several measurements is used in determining the binding, and the standard error of the mean is used in determining the probable error in the measurement of the binding. The standard error of the mean of N measurements equals the square root of the following: the sum of the squares of the difference between each measurement and the mean, divided by the product of (N) and (N−1). Thus, in one embodiment, specific binding of the PDZ protein to the platebound peptide is determined by comparing the mean signal (“mean S”) and standard error of the signal (“SE”) for a particular PL-PDZ combination with the mean B1.
Description for ZO-1 d2: as §1, §2, §3, §4, §5

Consider DFRPSFKHILFRRARRGFRQ, for which the PDZ domain bound entry with INADL d3 is “INADL D3”; with ZO-1 d2, “ZO-1 D2”.

As to ELLQFCRTPNPALKNGQYWV, the PDZ domain bound entry is “INADL D3” in the test with INADL d3 and “ZO-1 D2” with ZO-1 d2.

On to “ENLELPVNPSSVVSERISSV (Biotin-ENLELPVNPSSVVSERISSV)”, for which the PDZ domain bound result in the test with INADL d3 is reported as “INADL D3”.

FHSKTAGANTTDKELEVLSL: the PDZ domain bound entry with INADL d3 is “INADL D3”; with ZO-1 d2, “ZO-1 D2”.

Regarding “GRWTGRAMSAWKPTRRETEV (Biotin-GRWTGRAMSAWKPTRRETEV)”, the PDZ domain bound result with INADL d3 is on record as “INADL D3”.

In the case of “HAMNAAPRAMENAPALRTSH (Biotin-HAMNAAPRAMENAPALRTSH)”, the PDZ domain bound result in the test with INADL d3 is reported as “INADL D3”.

Turning to HDFRRAFKKILARGDRKRIV, the PDZ domain bound entry in the test with INADL d3 was “INADL D3”; with ZO-1 d2, “ZO-1 D2”.

For HHLVAQRDIRQFQLQHWLAI, the PDZ domain bound result with INADL d3 is “INADL D3”; in the test with ZO-1 d2 it was “ZO-1 D2”.

In the case of “HSCCNRARQERLQRRRETQV (Biotin-HSCCNRARQERLQRRRETQV; cysteine pairing not given here)”, the PDZ domain bound entry with INADL d3 was “INADL D3”; with ZO-1 d2, “ZO-1 D2”.

Turning to ILNSIQVMRAQMNQIQSVEV, the PDZ domain bound result with INADL d3 is recorded as “INADL D3”; in the test with ZO-1 d2, “ZO-1 D2”.

On to KHSRKSSSYSSSSTTVKTSY, for which the PDZ domain bound entry is recorded as “INADL D3” in the test with INADL d3 and “ZO-1 D2” in the test with ZO-1 d2.

As to KKKKQPGNSTKESESTNSVRLML, the values for the PDZ domain bound result with INADL d3 and with ZO-1 d2 were “INADL D3” and “ZO-1 D2”, respectively.

In the case of LASKSAEEGKQIPDSLSTDL, the PDZ domain bound result with INADL d3 is on record as “INADL D3”.

Turning to LAVLAYSITLVMLWSIWQYA, the PDZ domain bound result in the test with INADL d3 is on record as “INADL D3”; with ZO-1 d2, “ZO-1 D2”.

As to “LNSCSNRRVYKKMPSIESDV (Biotin-LNSCSNRRVYKKMPSIESDV)”, the PDZ domain bound entry with INADL d3 is on record as “INADL D3”; with ZO-1 d2 it was “ZO-I D2”.

Regarding LQFHRGSRAQSFLQTETSVI, the PDZ domain bound entry with INADL d3 is “INADL D3”.

For the sequence “NYKLNTDHAGSNDNIALLVQ (Biotin-NYKLNTDHAGSNDNIALLVQ)”, the PDZ domain bound entry with ZO-1 d2 was “ZO-1 D2”.

For the sequence PGQPPKVKSEFNSYSLTGYV, the PDZ domain bound result in the test with INADL d3 was “INADL D3”.

Consider PIPAGGCTFSGIFPTLTSPL, for which, in the test with INADL d3, the PDZ domain bound result is listed as “INADL D3”.

As to PSSRASSRASSRPRPDDLEI, the PDZ domain bound result with ZO-1 d2 is “ZO-1 D2”.

In the case of QDFRRAFRRILARPWTQTAW, the PDZ domain bound entry is “INADL D3” with INADL d3 and “ZO-1 D2” with ZO-1 d2.

Regarding RELVDRGEVRQFTLRHWLKV, the PDZ domain bound entry is recorded as “INADL D3” with INADL d3 and “ZO-I D2” in the test with ZO-1 d2.

In the case of RRRRRRRGNTTDKELEVLSL, in the test with ZO-1 d2, the PDZ domain bound result is reported as “ZO-1 D2”.

Regarding RRRRRRRGTNPAVAATSANL, the PDZ domain bound entry in the test with ZO-1 d2 is on record as “ZO-1 D2”.

Turning to RSGATIPLVGQDIIDLQTEV, the PDZ domain bound result with INADL d3 is “INADL D3”.

On to SLIGPVQKEYQRELGKLSSP, for which the PDZ domain bound entry with INADL d3 is “INADL D3”.

For the sequence SSKSKSSEESQTFFGLYKL, the PDZ domain bound result is “INADL D3” with INADL d3 and “ZO-1 D2” with ZO-1 d2.

For the sequence SSSRRDSSWSETSEASYSGL, in the test with ZO-1 d2, the PDZ domain bound result was “ZO-1 D2”.

For the sequence STDNLVRPFMDTLASHQLYI, the PDZ domain bound entry in the test with INADL d3 is “INADL D3”.

On to TEGNESSEATSPVNAIYSLA, for which the PDZ domain bound entry in the test with ZO-1 d2 is reported as “ZO-1 D2”.

On to TQGFPGPATWRRISSLESEV, for which the PDZ domain bound entry with INADL d3 was “INADL D3”.

In the case of “TTNNNPNSAVNIKKIFTDV (Biotin-TTNNNPNSAVNIKKIFTDV)”, the PDZ domain bound result is given as “INADL D3” with INADL d3 and “ZO-1 D2” with ZO-1 d2.

With “VDPNSPAAKKKYVSYNNLVI (Biotin-VDPNSPAAKKKYVSYNNLVI)”, the PDZ domain bound entry in the test with INADL d3 was “INADL D3”; with ZO-1 d2, “ZO-1 D2”.

For the sequence “VHKVRNKFKAKCSLCRLYII (Biotin-VHKVRNKFKAKCSLCRLYII; cysteine pairing not given here)”, the PDZ domain bound result with INADL d3 was “INADL D3”; with ZO-1 d2, “ZO-1 D2”.

“VPSDNIDSQGRNASTNDSLL (Biotin-VPSDNIDSQGRNASTNDSLL)”: the PDZ domain bound entry with INADL d3 is “INADL D3”.

In the case of “YGRKKRRQRRRARGDRKRIV (Biotin-YGRKKRRQRRRARGDRKRIV)”, the PDZ domain bound entry in the test with ZO-1 d2 was “ZO-1 D2”.

Turning to “YGRKKRRQRRRARGDRKRWA (Biotin-YGRKKRRQRRRARGDRKRWA)”, in the test with ZO-1 d2, the PDZ domain bound entry is “ZO-1 D2”.

Consider “YGRKKRRQRRRARGDRKRWL (Biotin-YGRKKRRQRRRARGDRKRWL)”, for which the PDZ domain bound entry in the test with ZO-1 d2 is “ZO-1 D2”.

Consider “YGRKKRRQRRRARSDRGIWA (Biotin-YGRKKRRQRRRARSDRGIWA)”, for which, in the test with ZO-1 d2, the PDZ domain bound result is listed as “ZO-1 D2”.

As to “YGRKKRRQRRRAVAAASANL (Biotin-YGRKKRRQRRRAVAAASANL)”, the PDZ domain bound entry with ZO-1 d2 is on record as “ZO-1 D2”.

YGRKKRRQRRRAVAATSANL: the PDZ domain bound result in the test with INADL d3 was “INADL D3”; in the test with ZO-1 d2 it was “ZO-1 D2”.

In the case of “YGRKKRRQRRRAVAATYSNL (Biotin-YGRKKRRQRRRAVAATYSNL)”, the PDZ domain bound entry with ZO-1 d2 is recorded as “ZO-1 D2”.

In the case of YGRKKRRQRRRDKELEVLSL, at ZO-1 d2, the PDZ domain bound entry is reported as “ZO-1 D2”.

On to YGRKKRRQRRREYLGLDVPV, for which the results for the PDZ domain bound result on INADL d3 and at ZO-1 d2 were “INADL D3” and “ZO-1 D2”, respectively.

In the case of YGRKKRRQRRRGASADSTQA, the PDZ domain bound result at ZO-1 d2 is listed as “ZO-1 D2”.

Take “YGRKKRRQRRRKLSSIESDV (Biotin-YGRKKRRQRRRKLSSIESDV)”: in the test with ZO-1 d2, the PDZ domain bound entry is on record as “ZO-1 D2”.

As to YGRKKRRQRRRNDNIALLVQ, the PDZ domain bound result at ZO-1 d2 is given as “ZO-1 D2”.

Regarding “YGRKKRRQRRRQDEEEGIWA (Biotin-YGRKKRRQRRRQDEEEGIWA)”, the PDZ domain bound result with ZO-1 d2 is recorded as “ZO-1 D2”.

For YGRKKRRQRRRSEGVPDLLV, the PDZ domain bound result on ZO-1 d2 is reported as “ZO-1 D2”.

Turning to “YSATYSELEDPGEMSPPIDL (Biotin-YSATYSELEDPGEMSPPIDL)”, the PDZ domain bound entry with INADL d3 is “INADL D3”.

Take “YVYSRVKNLNSSEGVPDLLV (Biotin-YVYSRVKNLNSSEGVPDLLV)”: in the test with ZO-1 d2, the PDZ domain bound entry is on record as “ZO-1 D2”.
